# Assay results from publication PMC11369598.
# B1: KLHL6 wild type, C-terminal Strep-HA tag (KLHL6-strHA) [human] / endogenous KLHL6 [human (endogenous in SuDHL5 and SuDHL4)] (parent)
# chain 1: MLMAGQRGAWTMGDVVEKSLEGPLAPSTDEPSQKTGDLVEILNGEKVKFDDAGLSLILQNGLETLRMENALTDVILCVDIQEFSCHRVVLAAASNYFRAMFCNDLKEKYEKRIIIKGVDAETMHTLLDYTYTSKALITKQNVQRVLEAANLFQFLRMVDACASFLTEALNPENCVGILRLADTHSLDSLKKQVQSYIIQNFVQILNSEEFLDLPVDTLHHILKSDDLYVTEEAQVFETVMSWVRHKPSERLCLLPYVLENVRLPLLDPWYFVETVEADPLIRQCPEVFPLLQEARMYHLSGNEIISERTKPRMHEFQSEVFMIIGGCTKDERFVAEVTCLDPLRRSRLEVAKLPLTEHELESENKKWVEFACVTLKNEVYISGGKETQHDVWKYNSSINKWIQIEYLNIGRWRHKMVVLGGKVYVIGGFDGLQRINNVETYDPFHNCWSEAAPLLVHVSSFAATSHKKKLYVIGGGPNGKLATDKTQCYDPSTNKWSLKAAMPVEAKCINAVSFRDRIYVVGGAMRALYAYSPLEDSWCLVTQLSHERASCGIAPCNNRLYITGGRDEKNEVIATVLCWDPEAQKLTEECVLPRGVSHHGSVTIRKSYTHIRRIVPGAVSV
# chain 2: B1 chain 1
# B2: KLHL6 wild type, C-terminal Strep-HA tag (KLHL6-strHA) [human] / KLHL26 [human (endogenous in SuDHL5)] (parent)
# chain 1: B1 chain 1
# chain 2: MAESGGSSGGAGGGGAFGAGPGPERPNSTADKNGALKCTFSAPSHSTSLLQGLATLRAQGQLLDVVLTINREAFPAHKVVLAACSDYFRAMFTGGMREASQDVIELKGVSARGLRHIIDFAYSAEVTLDLDCVQDVLGAAVFLQMLPVVELCEEFLKAAMSVETCLNIGQMATTFSLASLRESVDAFTFRHFLQIAEEEDFLRLPLERLVFFLQSNRLQSCAEIDLFRAAVRWLQHDPARRPRASHVLCHIRFPLMQSSELVDSVQTLDIMVEDVLCRQYLLEAFNYQVLPFRQHEMQSPRTAVRSDVPSLVTFGGTPYTDSDRSVSSKVYQLPEPGARHFRELTEMEVGCSHTCVAVLDNFVYVAGGQHLQYRSGEGAVDACYRYDPHLNRWLRLQAMQESRIQFQLNVLCGMVYATGGRNRAGSLASVERYCPRRNEWGYACSLKRRTWGHAGAASGGRLYISGGYGISVEDKKALHCYDPVADQWEFKAPMSEPRVLHAMVGAGGRIYALGGRMDHVDRCFDVLAVEYYVPETDQWTSVSPMRAGQSEAGCCLLERKIYIVGGYNWRLNNVTGIVQVYNTDTDEWERDLHFPESFAGIACAPVLLPRAGTRR
# B3: KLHL6 wild type, C-terminal Strep-HA tag (KLHL6-strHA) [human] / adapter protein BANK1 [human (endogenous in SuDHL5 and U2932)] (parent)
# chain 1: B1 chain 1
# chain 2: MLPAAPGKGLGSPDPAPCGPAPPGNTKDIIMIYEEDAEEWALYLTEVFLHVVKREAILLYRLENFSFRHLELLNLTSYKCKLLILSNSLLRDLTPKKCQFLEKILHSPKSVVTLLCGVKSSDQLYELLNISQSRWEISTEQEPEDYISVIQSIIFKDSEDYFEVNIPTDLRAKHSGEISERKEIEELSEASRNTIPLAVVLPTEIPCENPGEIFIILRDEVIGDTVEVEFTSSNKRIRTRPALWNKKVWCMKALEFPAGSVHVNVYCDGIVKATTKIKYYPTAKAKECLFRMADSGESLCQNSIEELDGVLTSIFKHEIPYYEFQSLQTEICSQNKYTHFKELPTLLHCAAKFGLKNLAIHLLQCSGATWASKMKNMEGSDPAHIAERHGHKELKKIFEDFSIQEIDINNEQENDYEEDIASFSTYIPSTQNPAFHHESRKTYGQSADGAEANEMEGEGKQNGSGMETKHSPLEVGSESSEDQYDDLYVFIPGADPENNSQEPLMSSRPPLPPPRPVANAFQLERPHFTLPGTMVEGQMERSQNWGHPGVRQETGDEPKGEKEKKEEEKEQEEEEDPYTFAEIDDSEYDMILANLSIKKKTGSRSFIINRPPAPTPRPTSIPPKEETTPYIAQVFQQKTARRQSDDDKFCGLPKKQDRARIESPAFSTLRGCLTDGQEELILLQEKVKNGKMSMDEALEKFKHWQMGKSGLEMIQQEKLRQLRDCIIGKRPEEENVYNKLTIVHHPGGKETAHNENKFYNVHFSNKLPARPQVEKEFGFCCKKDH
# B4: KLHL6 wild type, C-terminal Strep-HA tag (KLHL6-strHA) [human] / KLHL7 [human (endogenous in SuDHL5)] (parent)
# chain 1: B1 chain 1
# chain 2: MAASGVEKSSKKKTEKKLAAREEAKLLAGFMGVMNNMRKQKTLCDVILMVQERKIPAHRVVLAAASHFFNLMFTTNMLESKSFEVELKDAEPDIIEQLVEFAYTARISVNSNNVQSLLDAANQYQIEPVKKMCVDFLKEQVDASNCLGISVLAECLDCPELKATADDFIHQHFTEVYKTDEFLQLDVKRVTHLLNQDTLTVRAEDQVYDAAVRWLKYDEPNRQPFMVDILAKVRFPLISKNFLSKTVQAEPLIQDNPECLKMVISGMRYHLLSPEDREELVDGTRPRRKKHDYRIALFGGSQPQSCRYFNPKDYSWTDIRCPFEKRRDAACVFWDNVVYILGGSQLFPIKRMDCYNVVKDSWYSKLGPPTPRDSLAACAAEGKIYTSGGSEVGNSALYLFECYDTRTESWHTKPSMLTQRCSHGMVEANGLIYVCGGSLGNNVSGRVLNSCEVYDPATETWTELCPMIEARKNHGLVFVKDKIFAVGGQNGLGGLDNVEYYDIKLNEWKMVSPMPWKGVTVKCAAVGSIVYVLAGFQGVGRLGHILEYNTETDKWVANSKVRAFPVTSCLICVVDTCGANEETLET
# B5: KLHL6 wild type fused to C-terminal BioID2 [human] / LuZP1 [human (endogenous in SuDHL5 and U2932)] (parent)
# chain 1: B1 chain 1
# chain 2: MAEFTSYKETASSRHLRFKLQSLSRRLDELEEATKNLQKAEDELLDLQDKVIQAEGSNSSMLAEIEVLRQRVLRIEGKDEEIKRAEDLCRLMKEKLEEEENLTRELKSEIERLQKRMAELEKLEEAFSRSKNDCTQLCLSLNEERNLTKKISSELEMLRVKVKELESSEDRLDKTEQSLASELEKLKSLTLSFVSERKYLNEKEKENEKLIKELTQKLEQNKKMNRDYTRNASNLERNDLRIEDGISSTLPSKESRRKGGLDYLKQVENETRNKSENEKNRNQEDNKVKDLNQEIEKLKTQIKHFESLEEELKKMKSKNNDLQDNYLSEQNKNKLLASQLEEIKLQIKKQKELENGEVEGEDAFLSSKGRHERTKFRGHGSEASVSKHTARELSPQHKRERLRNREFALNNENYSLSNRQVSSPSFTNRRAAKASHMGVSTDSGTQETKKTEDRFVPGSSQSEGKKSREQPSVLSRYPPAAQEHSKAWKGTSKPGTESGLKGKVEKTTRTFSDTTHGSVPSDPLGRADKASDTSSETVFGKRGHVLGNGSQVTQAANSGCSKAIGALASSRRSSSEGLSKGKKAANGLEADNSCPNSKAPVLSKYPYSCRSQENILQGFSTSHKEGVNQPAAVVMEDSSPHEALRCRVIKSSGREKPDSDDDLDIASLVTAKLVNTTITPEPEPKPQPNSREKAKTRGAPRTSLFENDKDAGMENESVKSVRASTNTMELPDTNGAGVKSQRPFSPREALRSRAIIKPVIVDKDVKKIMGGSGTETTLEKQKPVSKPGPNKVTSSITIYPSDSSSPRAAPGEALRERHTSTSNIQVGLAELTSVSNHVSSPFELSIHKHDITLQLAEAERMADGPLKDRPETVVSRSSIIIKPSDPVERNSHAPPAETIRWKSHSAPSEVGFSDARHVTVRNAWKSRRDLKSLEDPPTRIGKNVESTNSNAYTQRSSTDFSELEQPRSCLFEQGTRRVGPSSGDAPEPSSRRTQSSLTVSEVLTRRNRVGDTITVAAWNHSASMEEEGEDCTLSVYRQLHNSLDPSELPGKQGLPESGRVRAEERLRPTRPCAEEN
# Variants of: B1
# Assay: AP-MS (spectral counts of the WT, leucine-65 peptide in the L65P bait pull-down)
# Conditions: with endogenous KLHL6 [human (endogenous in SuDHL5 and SuDHL4)]; SuDHL5 cells; read off a plot
row,response (spectral counts),Variant
1,5,chain 1 L65P

# Variants of: B1
# Assay: AP-MS (spectral counts of the WT, leucine-90 peptide in the L90F bait pull-down)
# Conditions: with endogenous KLHL6 [human (endogenous in SuDHL5 and SuDHL4)]; SuDHL5 cells; read off a plot
row,response (spectral counts),Variant
1,1,chain 1 L90F

# Variants of: B2
# Assay: AP-MS (Strep affinity purification, spectral counts)
# Conditions: with KLHL26 [human (endogenous in SuDHL5)]; SuDHL5 cells; read off a plot
row,response (spectral counts),Variant
1,0.5,chain 1 L90F
2,15,chain 1 E568K
3,0,chain 1 L65P

# Variants of: B2
# Assay: AP-MS (Strep affinity purification, mass spectrometry; DESeq2 model)
# Conditions: with KLHL26 [human (endogenous in SuDHL5)]; SuDHL5 cells; WT eight replicates, L90F eight replicates; read off a plot
row,screen value [log2],Variant
1,2.7,chain 1 L90F

# Same assay, conditions: with KLHL26 [human (endogenous in SuDHL5)]; SuDHL5 cells; WT eight replicates, L65P four replicates; read off a plot
row,screen value [log2],Variant
1,4.4,chain 1 L65P

# Variants of: B3
# Assay: AP-MS (Strep affinity purification, spectral counts)
# Conditions: with adapter protein BANK1 [human (endogenous in SuDHL5 and U2932)]; SuDHL5 cells; read off a plot
row,response (spectral counts),Variant
1,7.5,chain 1 L90F
2,0.5,chain 1 L65P
3,2,chain 1 E568K

# Variants of: B4
# Assay: as above
# Conditions: with KLHL7 [human (endogenous in SuDHL5)]; SuDHL5 cells; read off a plot
row,response (spectral counts),Variant
1,0,chain 1 L65P
2,20,chain 1 E568K
3,0,chain 1 L90F

# Variants of: B4
# Assay: AP-MS (Strep affinity purification, mass spectrometry; DESeq2 model)
# Conditions: with KLHL7 [human (endogenous in SuDHL5)]; SuDHL5 cells; WT eight replicates, L65P four replicates; read off a plot
row,screen value [log2],Variant
1,4.9,chain 1 L65P

# Same assay, conditions: with KLHL7 [human (endogenous in SuDHL5)]; SuDHL5 cells; WT eight replicates, L90F eight replicates; read off a plot
row,screen value [log2],Variant
1,4.9,chain 1 L90F

# Variants of: B5
# Assay: BioID2 proximity labelling, mass spectrometry (spectral counts)
# Conditions: with LuZP1 [human (endogenous in SuDHL5 and U2932)]; SuDHL5 cells; read off a plot
row,response (spectral counts),Variant
1,1.5,chain 1 E547K
2,13,chain 1 L65P
3,1.5,chain 1 E568K

# Variants of: B5
# Assay: BioID2 proximity labelling, mass spectrometry
# Conditions: with LuZP1 [human (endogenous in SuDHL5 and U2932)]; SuDHL5 cells; read off a plot
row,screen value [log2],Variant
1,2.4,chain 1 E568K
